How the values were obtained:
Format in all cases: cell-based, human
hCMEC/D3 cells [1] = test: FAM-Aβ1-42 uptake by hCMEC/D3 cells, flow cytometry; settings: hCMEC/D3, FAM-Aβ1-42 500 ng/mL (100 nM), 37 °C
Description: For quantification of Aβ1-42 uptake, hCMEC/D3 cells were plated into a 6-well plate coated with collagen type I and grown to confluence. Cells were washed with PBS and incubated for 5, 10, 15 and 30 minutes at 37 °C, with 500 ng/mL of FAM-Aβ1-42 (100 nM) in presence or absence of h rTTR (7.5 μg/mL, 136 nM). After incubation, cells were washed twice with PBS and enzymatically detached using trypsin (Gibco™), and then resuspended cells were centrifuged at 1000 rpm at RT for 5 minutes. The pellet was washed with PBS and cells recentrifuged as described above. Then the pellet was resuspended with PBS, and if necessary fixed with 4% Paraformaldehyde (PFA). Finally, cells were analyzed in FACS Canto II equipment (BD Biosciences) using Blue laser excitation of 488 nm. The flow cytometry data were analyzed using the Flowjo workstation.

SAHep cells = test: FAM-Aβ1-42 internalization by SAHep cells, flow cytometry; settings: FAM-Aβ1-42, 4.5–7.5 μg/mL of h rTTR, 3 hours, 37 °C, N = 3
Description: For the study with hepatocytes, SAHep cells were grown in 6-well plates coated with collagen type I and after 24 hours cells were incubated with FAM-Aβ1-42 in the presence or absence of h rTTR (136 nM) for 3 hours at 37 °C. For primary hepatocytes, after 48 hours of seeding, cells were incubated with FAM-Aβ1-42 (100 nM), with the advantage of no need for TTR addition. For hepatocytes derived from TTR−/− mice, we also examined the effect of h rTTR on FAM-Aβ1-42 internalization. FAM-Aβ1-42 inside SAHep cells and primary hepatocytes was measured by flow cytometry (FACS Canto II, BD Biosciences).

hCMEC/D3 cells [2] = test: FAM-Aβ1-42 efflux from hCMEC/D3 cells, flow cytometry; settings: hCMEC/D3, 10 min loading with FAM-Aβ1-42, then 20 min in FAM-Aβ1-42-free media, 37 °C, mean of N = 3
Description: For efflux studies, hCMEC/D3 cells were initially incubated with FAM-Aβ1-42 for 10 minutes and then the media was removed and replaced with FAM-Aβ1-42 -free media, and further incubated for 10 and 20 minutes, at 37 °C. Finally, cells were analyzed by flow cytometry, as described above.

Substance: FAM-Aβ1-42: Aβ1-42 labeled with 5-(and-6)-Carboxyfluorescenin (FAM), purchased from AnaSpec
- FAM-Aβ1-42 uptake, fluorescent cells (hCMEC/D3 cells [1]; 5 min, absence and presence of h rTTR 7.5 μg/mL (136 nM), N = 3): 35–39%
- FAM-Aβ1-42 uptake, fluorescent cells (hCMEC/D3 cells [1]; 10 min, absence and presence of h rTTR 7.5 μg/mL, difference not significant, N = 3): over 57%
- FAM-Aβ1-42 uptake, fluorescent cells (hCMEC/D3 cells [1]; 15 min, absence of TTR, mean of N = 3): 61.7%
- FAM-Aβ1-42 uptake, fluorescent cells (hCMEC/D3 cells [1]; 15 min, presence of h rTTR 7.5 μg/mL (136 nM), mean of N = 3): about 73%
- FAM-Aβ1-42 internalization with versus without TTR (hCMEC/D3 cells [1]; 30 min, h rTTR 7.5 μg/mL versus none, N = 3): significantly higher in the presence of TTR
- Uptake of Aβ1-42 peptide by SAHep cells, maximum (SAHep cells): 70%
- FAM-Aβ1-42 efflux, fluorescent cells remaining (hCMEC/D3 cells [2]; absence of TTR): 67.6%
- FAM-Aβ1-42 efflux, fluorescent cells remaining (hCMEC/D3 cells [2]; presence of h rTTR): 45.5%

From paper PMC4738280, “Transthyretin participates in beta-amyloid transport from the brain to the liver- involvement of the low-density lipoprotein receptor-related protein 1?” (Scientific Reports, 2016)
